T1: XylR (Anaerocellum (f. Caldicellulosiruptor) …, UniProt Q44406 1-399)
T1 sequence: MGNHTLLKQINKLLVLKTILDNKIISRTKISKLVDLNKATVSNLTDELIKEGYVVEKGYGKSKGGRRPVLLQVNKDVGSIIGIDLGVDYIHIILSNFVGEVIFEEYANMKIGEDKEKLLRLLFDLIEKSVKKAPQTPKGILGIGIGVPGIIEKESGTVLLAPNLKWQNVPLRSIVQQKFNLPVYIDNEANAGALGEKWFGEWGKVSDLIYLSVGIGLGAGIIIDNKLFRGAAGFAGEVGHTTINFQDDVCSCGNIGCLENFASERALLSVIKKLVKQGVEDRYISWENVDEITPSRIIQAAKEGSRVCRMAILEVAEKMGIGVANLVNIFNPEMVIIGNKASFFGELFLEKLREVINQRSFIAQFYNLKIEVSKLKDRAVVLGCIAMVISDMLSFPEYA


Key:
[1] = target: XynR (Anaerocellum (f. Caldicellulosiruptor) bescii) (UniProt B9MPD1); test: fluorescence polarization; settings: 20 mM Tris-HCl, 100 mM NaCl, 0.02% Tween 20, pH 7.4; FP: 5 nM probe, 30 nM-3 uM protein, 22 C; BLI: 100 nM DNA immobilized on streptavidin sensors
[2] = target: T1, XylR; test: fluorescence polarization; Hill coefficient <1; 20 mM Tris-HCl, 100 mM NaCl, 0.02% Tween 20, pH 7.4; FP: 5 nM probe, 30 nM-3 uM protein, 22 C; BLI: 100 nM DNA immobilized on streptavidin sensors; settings: protein: recombinant; tags: C-terminal 6xHis; chain copies: 2; label: 5' 6-FAM on strand 1; blunt
[3] = target: T1, XylR; test: BLI; 20 mM Tris-HCl, 100 mM NaCl, 0.02% Tween 20, pH 7.4; FP: 5 nM probe, 30 nM-3 uM protein, 22 C; BLI: 100 nM DNA immobilized on streptavidin sensors; settings: protein: recombinant; tags: C-terminal 6xHis; chain copies: 2; label: 5' biotin on strand 1; blunt

Molecule	Kd [1]	other results
ATTGACTAGTAAACGCTTACGATATATT (double strand) [XDL FP probe]	161 nM	
ATTTTCATGAAATCGCTTTCCTATCTAA / TTAGATAGGAAAGCGATTTCATGAAAATA [xynMNC FP probe]	150 nM	
TAATAATCGAAATCGCTTACAATTCCTG (double strand) [xynR-xylB FP probe]	172 nM	
TGAGGTTAGAAAGCGGTTTCAAGCAATT (double strand) [xyl3A FP probe]	169 nM	
xynUVW FP probe (dsDNA) DNA 1: TAAATATATAAATAGTTTGTTTAAGAAATAAACCAAAAGGAGTGATT DNA 2: AATCACTCCTTTTGGTTTATTTCTTAAACAAACTATTTATATATTTA		Kd [2]: 165 nM
xylA BLI probe (dsDNA) DNA 1: ATTATAGATATTAGTTTGTTTAATAAACAAACTAAGTACACGTACT DNA 2: AGTACGTGTACTTAGTTTGTTTATTAAACAAACTAATATCTATAAT		binding result [3]: binds

From publication PMC12285236, “Xylanolytic metabolism is regulated by coordination of transcription factors XynR and XylR in extremely thermophilic Caldicellulosiruptorales”
